# According to the supplement of paper PMC10065799, “High-throughput profiling of sequence recognition by tyrosine kinases and SH2 domains using bacterial peptide display” (eLife, 2023):
# What was measured:
# EPHB2 = EPHB2 (UniProt P29323); assay: phosphorylation enrichment, bacterial display (enrichment ratio); higher = better substrate or ligand; peptides without Tyr show the background
# FGFR1 = FGFR1 (UniProt P11362); assay: as above
# FGFR3 = FGFR3 (UniProt P22607); assay: as above
# AncSZ = assay: as above
# Hck = Hck (UniProt P08631); assay: as above
# Hck, sequence (P08631 whole entry, looked up): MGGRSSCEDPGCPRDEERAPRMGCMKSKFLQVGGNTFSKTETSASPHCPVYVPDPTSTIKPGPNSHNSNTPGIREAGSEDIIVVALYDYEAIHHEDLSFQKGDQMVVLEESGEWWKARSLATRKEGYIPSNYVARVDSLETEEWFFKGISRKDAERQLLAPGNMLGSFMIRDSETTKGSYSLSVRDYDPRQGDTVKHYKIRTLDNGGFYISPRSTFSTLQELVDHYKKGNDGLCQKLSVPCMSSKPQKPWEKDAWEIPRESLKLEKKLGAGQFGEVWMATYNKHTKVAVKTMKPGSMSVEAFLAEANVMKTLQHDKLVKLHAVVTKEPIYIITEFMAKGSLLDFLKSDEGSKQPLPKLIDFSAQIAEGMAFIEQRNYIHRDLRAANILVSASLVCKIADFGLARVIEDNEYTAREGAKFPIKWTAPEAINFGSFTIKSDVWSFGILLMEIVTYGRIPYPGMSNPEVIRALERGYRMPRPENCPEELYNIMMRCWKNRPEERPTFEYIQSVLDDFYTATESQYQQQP
# EPHB1 = EPHB1 (UniProt P54762); assay: as above
# Jak2 = Jak2 (UniProt O60674); assay: as above
# Jak2, sequence (O60674 whole entry, looked up): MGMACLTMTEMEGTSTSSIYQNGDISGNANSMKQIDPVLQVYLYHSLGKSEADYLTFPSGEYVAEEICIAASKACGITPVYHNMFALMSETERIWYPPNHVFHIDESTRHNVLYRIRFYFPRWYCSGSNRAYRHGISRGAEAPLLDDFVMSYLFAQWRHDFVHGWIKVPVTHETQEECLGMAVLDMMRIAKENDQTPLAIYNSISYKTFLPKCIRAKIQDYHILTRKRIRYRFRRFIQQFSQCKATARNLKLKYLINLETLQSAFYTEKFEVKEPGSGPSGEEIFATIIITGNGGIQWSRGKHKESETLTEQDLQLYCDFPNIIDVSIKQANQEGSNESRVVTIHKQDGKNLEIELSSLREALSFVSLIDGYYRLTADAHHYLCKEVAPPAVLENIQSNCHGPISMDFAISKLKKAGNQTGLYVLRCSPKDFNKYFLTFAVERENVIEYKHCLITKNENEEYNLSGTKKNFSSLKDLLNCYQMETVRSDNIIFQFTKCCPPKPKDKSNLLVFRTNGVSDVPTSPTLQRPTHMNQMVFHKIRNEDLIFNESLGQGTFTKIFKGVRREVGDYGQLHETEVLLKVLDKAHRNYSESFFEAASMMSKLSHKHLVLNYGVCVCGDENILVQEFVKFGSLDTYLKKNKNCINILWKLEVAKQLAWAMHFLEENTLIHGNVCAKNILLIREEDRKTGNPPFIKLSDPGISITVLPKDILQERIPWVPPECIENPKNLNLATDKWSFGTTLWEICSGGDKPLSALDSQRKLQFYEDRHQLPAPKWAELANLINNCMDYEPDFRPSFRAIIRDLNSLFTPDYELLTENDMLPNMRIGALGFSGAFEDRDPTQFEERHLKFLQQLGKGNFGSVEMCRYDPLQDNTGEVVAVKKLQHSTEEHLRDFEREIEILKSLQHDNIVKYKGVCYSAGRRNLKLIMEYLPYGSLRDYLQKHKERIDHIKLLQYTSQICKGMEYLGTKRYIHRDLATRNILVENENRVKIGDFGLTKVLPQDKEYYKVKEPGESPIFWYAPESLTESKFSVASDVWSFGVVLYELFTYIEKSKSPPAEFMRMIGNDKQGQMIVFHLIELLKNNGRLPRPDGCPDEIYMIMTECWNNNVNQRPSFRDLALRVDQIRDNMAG
# Fer (mouse) = assay: as above
# MERTK = MERTK (UniProt Q12866); assay: as above
# c-Src = assay: as above
# Fes = Fes (UniProt P07332); assay: as above
# Fes, sequence (P07332 whole entry, looked up): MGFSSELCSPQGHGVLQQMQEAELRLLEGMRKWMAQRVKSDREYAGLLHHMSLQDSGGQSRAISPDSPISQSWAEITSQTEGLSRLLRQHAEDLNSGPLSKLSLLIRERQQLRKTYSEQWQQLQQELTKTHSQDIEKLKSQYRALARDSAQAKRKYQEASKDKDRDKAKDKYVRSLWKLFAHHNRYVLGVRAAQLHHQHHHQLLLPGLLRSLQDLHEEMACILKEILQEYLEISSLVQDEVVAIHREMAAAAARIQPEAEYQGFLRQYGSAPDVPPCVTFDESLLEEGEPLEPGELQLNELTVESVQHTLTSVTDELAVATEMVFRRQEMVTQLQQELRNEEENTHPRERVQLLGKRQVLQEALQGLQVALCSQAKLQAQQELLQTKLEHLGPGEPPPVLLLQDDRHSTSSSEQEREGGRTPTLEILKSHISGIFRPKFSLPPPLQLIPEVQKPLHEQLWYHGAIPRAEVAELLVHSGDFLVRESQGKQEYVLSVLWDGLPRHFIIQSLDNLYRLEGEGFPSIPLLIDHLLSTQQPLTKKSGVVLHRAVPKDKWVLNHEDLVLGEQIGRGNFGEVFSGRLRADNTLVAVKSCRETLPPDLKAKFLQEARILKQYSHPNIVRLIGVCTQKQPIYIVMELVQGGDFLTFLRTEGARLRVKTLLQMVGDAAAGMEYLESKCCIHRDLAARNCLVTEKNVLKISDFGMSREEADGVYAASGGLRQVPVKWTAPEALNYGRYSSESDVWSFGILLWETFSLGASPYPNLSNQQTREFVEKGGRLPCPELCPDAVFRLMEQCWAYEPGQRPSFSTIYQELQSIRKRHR
# Fyn = Fyn (UniProt P06241); assay: as above
# Fyn, sequence (P06241 whole entry, looked up): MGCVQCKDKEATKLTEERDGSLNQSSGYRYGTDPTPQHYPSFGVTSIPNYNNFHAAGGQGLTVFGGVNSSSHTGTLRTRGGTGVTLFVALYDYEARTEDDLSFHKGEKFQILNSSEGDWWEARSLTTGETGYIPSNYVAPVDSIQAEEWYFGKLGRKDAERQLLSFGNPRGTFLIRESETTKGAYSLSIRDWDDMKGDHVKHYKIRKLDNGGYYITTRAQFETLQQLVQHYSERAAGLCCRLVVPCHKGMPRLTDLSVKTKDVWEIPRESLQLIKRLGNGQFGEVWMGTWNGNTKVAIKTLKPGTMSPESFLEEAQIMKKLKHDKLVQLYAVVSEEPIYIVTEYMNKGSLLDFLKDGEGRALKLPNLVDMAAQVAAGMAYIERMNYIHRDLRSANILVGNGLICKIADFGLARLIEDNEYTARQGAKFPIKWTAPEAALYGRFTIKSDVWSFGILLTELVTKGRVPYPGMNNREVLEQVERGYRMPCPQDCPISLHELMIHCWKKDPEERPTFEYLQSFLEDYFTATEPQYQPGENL
# c-Abl (mouse) = assay: as above
# SHP2-C SH2 = assay: SH2 binding enrichment of the phosphorylated peptide, bacterial display (enrichment ratio); higher = better substrate or ligand; peptides without Tyr show the background
# Grb2 SH2 = Grb2 SH2 (UniProt P62993); assay: as above
# c-Src SH2 = assay: as above
# 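Throughout, for SH2 binding enrichment of the phosphorylated peptide, bacterial display: peptide library displayed on the E. coli surface as eCPX fusions, selected cells deep-sequenced, score is each peptide's frequency after selection divided by its frequency in the input.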
# 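Throughout, for phosphorylation enrichment, bacterial display: 11-residue human phosphosite peptides and single-mutation variants displayed on the E. coli surface, counted by deep sequencing, each peptide's frequency after selection divided by its frequency in the unselected input library; frequency after pTyr selection over input frequency; kinase dosed for 20-30% of maximal phosphorylation in three min.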
# FGFR3, sequence (P22607 whole entry, looked up): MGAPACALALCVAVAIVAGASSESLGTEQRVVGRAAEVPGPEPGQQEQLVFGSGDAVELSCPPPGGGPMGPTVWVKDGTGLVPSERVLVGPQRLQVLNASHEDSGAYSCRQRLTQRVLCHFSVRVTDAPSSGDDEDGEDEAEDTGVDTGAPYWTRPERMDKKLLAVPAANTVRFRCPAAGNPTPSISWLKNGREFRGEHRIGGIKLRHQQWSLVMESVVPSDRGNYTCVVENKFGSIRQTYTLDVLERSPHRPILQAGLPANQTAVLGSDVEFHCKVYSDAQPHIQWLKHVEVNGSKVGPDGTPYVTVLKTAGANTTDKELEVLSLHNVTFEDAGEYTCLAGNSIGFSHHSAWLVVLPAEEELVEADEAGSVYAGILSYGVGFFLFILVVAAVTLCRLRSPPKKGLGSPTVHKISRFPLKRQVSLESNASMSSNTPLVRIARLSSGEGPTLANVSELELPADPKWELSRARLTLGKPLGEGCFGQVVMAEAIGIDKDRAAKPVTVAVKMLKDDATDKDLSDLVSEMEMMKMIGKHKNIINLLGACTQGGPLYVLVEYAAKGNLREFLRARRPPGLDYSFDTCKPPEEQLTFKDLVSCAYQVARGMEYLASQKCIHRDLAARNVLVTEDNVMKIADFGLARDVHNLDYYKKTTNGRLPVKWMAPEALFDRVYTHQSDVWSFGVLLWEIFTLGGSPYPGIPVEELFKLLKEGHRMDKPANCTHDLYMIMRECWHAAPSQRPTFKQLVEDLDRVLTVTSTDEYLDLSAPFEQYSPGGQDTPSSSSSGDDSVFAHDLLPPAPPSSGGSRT
# EPHB2, sequence (P29323 whole entry, looked up): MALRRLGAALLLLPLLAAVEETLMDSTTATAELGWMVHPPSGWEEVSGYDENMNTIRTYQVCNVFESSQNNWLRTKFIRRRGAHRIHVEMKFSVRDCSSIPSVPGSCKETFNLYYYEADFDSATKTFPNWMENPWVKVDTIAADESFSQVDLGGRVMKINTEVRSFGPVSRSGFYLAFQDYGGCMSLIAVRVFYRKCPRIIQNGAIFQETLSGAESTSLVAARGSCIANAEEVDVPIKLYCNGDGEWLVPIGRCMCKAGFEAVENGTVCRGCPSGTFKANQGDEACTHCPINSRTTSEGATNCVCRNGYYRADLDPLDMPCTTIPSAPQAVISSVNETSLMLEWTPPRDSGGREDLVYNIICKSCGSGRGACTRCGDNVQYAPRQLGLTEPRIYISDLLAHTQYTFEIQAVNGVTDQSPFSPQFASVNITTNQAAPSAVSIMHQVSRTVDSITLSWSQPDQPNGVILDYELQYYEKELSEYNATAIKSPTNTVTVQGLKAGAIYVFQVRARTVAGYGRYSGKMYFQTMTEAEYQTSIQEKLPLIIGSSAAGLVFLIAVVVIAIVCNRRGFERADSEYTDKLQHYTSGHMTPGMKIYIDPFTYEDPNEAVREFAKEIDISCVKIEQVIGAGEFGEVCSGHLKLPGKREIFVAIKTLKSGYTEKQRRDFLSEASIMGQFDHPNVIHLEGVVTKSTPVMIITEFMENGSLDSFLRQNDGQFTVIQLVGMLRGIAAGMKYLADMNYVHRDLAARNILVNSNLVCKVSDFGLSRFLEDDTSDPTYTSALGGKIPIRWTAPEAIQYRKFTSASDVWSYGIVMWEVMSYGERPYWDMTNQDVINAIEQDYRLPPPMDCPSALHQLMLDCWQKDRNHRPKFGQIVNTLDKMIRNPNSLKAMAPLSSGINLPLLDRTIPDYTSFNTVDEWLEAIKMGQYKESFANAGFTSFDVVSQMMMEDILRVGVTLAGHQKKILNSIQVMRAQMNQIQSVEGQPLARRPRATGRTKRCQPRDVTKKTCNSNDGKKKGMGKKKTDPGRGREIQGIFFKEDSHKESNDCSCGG
Sequence,SH2 binding enrichment (SHP2-C SH2),SH2 binding enrichment (Grb2 SH2),SH2 binding enrichment (c-Src SH2),phosphorylation enrichment (EPHB2),phosphorylation enrichment (FGFR1),phosphorylation enrichment (FGFR3),phosphorylation enrichment (AncSZ),phosphorylation enrichment (Hck),phosphorylation enrichment (EPHB1),phosphorylation enrichment (Jak2),phosphorylation enrichment (Fer (mouse)),phosphorylation enrichment (MERTK),phosphorylation enrichment (c-Src),phosphorylation enrichment (Fes),phosphorylation enrichment (Fyn),phosphorylation enrichment (c-Abl (mouse))
DRFANYIEKVR [DES_Y122],0.743,0.769,0.473,0.424,0.419,0.508,0.628,0.42,0.523,1.02,0.41,0.367,0.425,0.759,0.434,0.728
DRLAVYIDRVR [LMNA_Y45],0.861,1.07,0.682,0.554,0.418,0.745,1.24,0.434,0.542,0.892,0.488,0.41,0.359,1.11,0.476,0.61
DVMDFYKTLRG [NR3C1_Y30],0.537,0.718,0.47,0.423,0.393,0.484,0.719,0.434,0.404,0.685,0.41,0.394,0.342,0.728,0.451,0.571
DVQNEYDSNHC [ZFYVE16_Y36_A35E],0.692,1.1,0.541,0.513,0.512,0.665,1.01,0.576,0.508,0.701,0.414,0.477,0.444,1.07,0.59,0.671
EAEPFYCSLRD [NPHS1_Y1139_R1140C_YF],0.616,0.941,0.668,1.27,0.668,0.896,1.54,2.54,1.19,1.17,2.19,1.67,2.86,1.36,2.66,0.878
EAEPFYRSLRD [NPHS1_Y1139_YF],0.628,1.19,0.521,0.545,0.536,0.707,0.792,0.644,0.461,0.893,0.451,0.539,0.53,1.18,0.433,0.743
EAIMTYVSSFF [ACTN4_Y260_K255E_YF],0.642,0.659,0.493,0.726,0.501,0.675,1.02,0.643,0.621,0.9,0.468,0.422,0.975,1.04,0.778,0.842
EALDFYGELRT [PTEN_Y155_V158L],0.731,0.775,0.503,0.764,0.571,0.964,1.27,1.25,0.771,1.33,0.779,0.453,0.805,1.48,0.933,0.843
EARRVYGDIIY [ALDH5A1_Y175_H180Y],0.604,0.805,0.504,0.725,0.491,0.579,0.683,1.27,0.455,0.813,0.648,0.42,1.14,0.834,1.59,0.597
EASEQYLTKAS [NRCAM_Y739],0.696,0.901,0.417,0.425,0.571,0.556,0.711,0.43,0.424,0.793,0.463,0.485,0.458,0.802,0.496,0.798
EEEFEYMNRRR [ERBB3_Y1199_D1194E_YF],0.671,1.37,0.649,0.532,0.554,0.767,1.59,0.569,0.693,1.19,0.408,0.724,0.608,1.24,0.515,0.808
EEESCYILHSS [PATJ_Y783],0.79,0.944,0.744,0.625,0.621,0.853,1.63,0.57,0.637,1.31,0.926,0.484,0.819,1.35,0.659,0.892
EFISEYCGEII [EZH2_Y641],0.809,0.947,0.617,0.716,0.604,1.05,1.61,0.664,0.901,1.05,0.678,0.616,0.576,1.33,0.692,0.905
EFLRNYFTDKA [DSG2_Y775],1.03,1.03,0.444,0.472,0.569,0.622,1.09,0.414,0.572,0.962,0.573,0.567,0.528,1.08,0.48,0.764
EFNLMYHGTKE [IRF6_Y97_D98H],0.784,0.827,0.656,0.645,0.489,0.579,0.923,0.455,0.631,0.744,0.451,0.442,0.545,0.94,0.463,0.593
EGNERYEGFCV [GRIA3_Y451_YF],0.66,0.74,1.52,0.515,0.649,0.697,1.12,0.554,0.662,1.01,0.55,0.431,0.479,1.15,0.58,0.783
EGVPLYESATT [DCC_Y809],0.489,0.731,0.57,4.87,0.475,0.775,1.12,2.05,4.19,0.988,7.75,0.638,1.14,1.07,1.09,0.831
EHTTLYSNNST [KANSL1_Y223],0.863,0.846,0.651,0.53,0.356,0.431,0.632,0.568,0.387,0.575,0.602,0.386,0.455,0.65,0.423,0.487
EIRTQYEAMAS [GFAP_Y242],1.14,0.702,2.62,0.577,0.638,0.523,0.691,0.534,0.45,0.682,0.483,0.415,0.472,0.778,0.55,0.676
EKFVPYYDLFM [IPO5_Y530],1.46,1.72,3.84,6.87,6.89,5.89,1.2,3.27,4.82,1.47,3.71,7.26,4.22,1.18,3.05,0.787
ELAINYQEQAS [SLC9A9_Y591],0.556,0.905,0.536,0.469,0.522,0.674,0.923,0.643,0.526,0.832,0.524,0.416,0.403,0.869,0.539,0.504
ELCSEYHKSRK [SPINK5_Y440_R441H],0.679,0.824,0.484,0.412,0.513,0.53,0.73,0.442,0.405,0.945,0.507,0.532,0.633,1.02,0.487,0.999

# Now from value to sequence, other results behind:
SH2 binding enrichment (SHP2-C SH2),SH2 binding enrichment (Grb2 SH2),SH2 binding enrichment (c-Src SH2),Sequence,phosphorylation enrichment (EPHB2),phosphorylation enrichment (FGFR1),phosphorylation enrichment (FGFR3),phosphorylation enrichment (AncSZ),phosphorylation enrichment (Hck),phosphorylation enrichment (EPHB1),phosphorylation enrichment (Jak2),phosphorylation enrichment (Fer (mouse)),phosphorylation enrichment (MERTK),phosphorylation enrichment (c-Src),phosphorylation enrichment (Fes),phosphorylation enrichment (Fyn),phosphorylation enrichment (c-Abl (mouse))
0.661,0.724,0.593,DSASAYADEVK [ETNPPL_Y189],0.544,0.655,0.685,1.28,0.653,0.536,1.15,0.53,0.601,0.638,1.04,0.549,0.685
0.951,0.754,0.538,DSNLIYSQIWS [FCRL3_Y662_P660L],17.1,7.38,6.79,2.1,9.1,15.2,2.46,15.7,10,7.08,12.2,9.04,15.4
0.618,0.739,1.02,DVCKNYAEAKD [ALB_Y343],0.561,0.569,0.702,1.07,0.571,0.541,1.14,0.495,0.448,0.55,1.19,0.509,0.804
0.727,0.922,0.623,DYLEKYYKFGS [NNMT_Y24],0.436,0.486,0.553,0.631,0.402,0.33,0.791,0.369,0.494,0.636,0.768,0.436,0.458
0.908,0.931,1.91,EAEPYYCSLRD [NPHS1_Y1139_R1140C],1.21,1.34,1.31,1.78,2.94,1.17,1.33,1.85,2.28,4.11,1.43,3.37,1.62
0.796,0.774,0.414,EEALFYLTRVE [SET_Y119_H118Y_YF],0.828,0.599,1.05,1.43,0.68,0.967,1.61,0.835,0.472,0.557,1.67,0.58,1.03
1.16,0.758,0.532,EEALHYLTRVE [SET_Y119],0.536,0.47,0.724,1.02,0.586,0.73,1,0.492,0.469,0.462,1.13,0.466,0.748
0.393,0.808,0.473,EFGEVYKGTLK [EPHA2_Y628_M631T],0.409,0.386,0.426,0.603,0.398,0.539,0.425,0.448,0.362,0.376,0.549,0.373,0.521
0.528,0.742,0.453,EFNINYNNEPP [THG1L_Y228_L232P],0.566,0.681,0.742,1.23,0.583,0.642,0.989,0.6,0.46,0.529,1.3,0.626,0.852
0.921,0.897,18.8,EKQARYEIVEE [CDH5_Y223_V227E],0.565,0.506,0.798,1.2,0.667,0.582,1.09,0.56,0.644,0.521,1.24,0.542,0.749
0.395,0.761,0.397,ELTSVYDSRAR [SENP1_Y349],0.507,0.491,0.574,0.585,1.62,0.35,0.592,0.432,0.52,1.03,0.624,0.697,0.557
